Measured values taken from patent US20030109691A1.

Legend:
CD54 (ICAM-1) = CD54 (ICAM-1) (UniProt P05362); assay: SPR (BIAcore), CD54 on CM5 chip, A domain flowed; linear transformation, mean±SD, n=2
fibrinogen = fibrinogen (UniProt P02671); assay: SPR (BIAcore), fibrinogen on CM5 chip, A domain flowed; linear transformation, mean±SD, n=2
complement iC3b [1] = biological target: complement iC3b (UniProt P01024); assay: SPR (BIAcore), iC3b on CM5 chip, A domain flowed; linear transformation, mean±SD, n=2
complement iC3b [2] = biological target: complement iC3b (UniProt P01024); assay: SPR (BIAcore), iC3b on CM5 chip, A domain flowed

fibrinogen, sequence (P02671 20-629 limits assumed, chain 1 of 3): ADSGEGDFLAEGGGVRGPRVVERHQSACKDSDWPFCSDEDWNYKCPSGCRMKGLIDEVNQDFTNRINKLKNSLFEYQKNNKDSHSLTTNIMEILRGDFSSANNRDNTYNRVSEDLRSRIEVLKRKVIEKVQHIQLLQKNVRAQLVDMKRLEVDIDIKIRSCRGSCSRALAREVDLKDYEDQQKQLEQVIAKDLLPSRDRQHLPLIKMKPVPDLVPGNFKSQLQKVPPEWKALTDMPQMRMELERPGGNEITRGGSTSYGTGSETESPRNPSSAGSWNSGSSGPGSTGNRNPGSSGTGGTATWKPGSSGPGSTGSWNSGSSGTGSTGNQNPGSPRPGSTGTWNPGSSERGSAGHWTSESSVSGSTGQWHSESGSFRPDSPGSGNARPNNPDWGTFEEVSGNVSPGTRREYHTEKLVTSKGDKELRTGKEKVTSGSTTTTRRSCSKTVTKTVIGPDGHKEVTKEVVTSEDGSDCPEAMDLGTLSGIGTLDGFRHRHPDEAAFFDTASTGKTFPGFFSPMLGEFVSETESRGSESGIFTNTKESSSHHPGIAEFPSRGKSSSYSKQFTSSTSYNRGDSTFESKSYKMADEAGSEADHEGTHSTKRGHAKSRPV
fibrinogen, sequence (P02675 31-491 limits assumed, chain 2 of 3, further chain): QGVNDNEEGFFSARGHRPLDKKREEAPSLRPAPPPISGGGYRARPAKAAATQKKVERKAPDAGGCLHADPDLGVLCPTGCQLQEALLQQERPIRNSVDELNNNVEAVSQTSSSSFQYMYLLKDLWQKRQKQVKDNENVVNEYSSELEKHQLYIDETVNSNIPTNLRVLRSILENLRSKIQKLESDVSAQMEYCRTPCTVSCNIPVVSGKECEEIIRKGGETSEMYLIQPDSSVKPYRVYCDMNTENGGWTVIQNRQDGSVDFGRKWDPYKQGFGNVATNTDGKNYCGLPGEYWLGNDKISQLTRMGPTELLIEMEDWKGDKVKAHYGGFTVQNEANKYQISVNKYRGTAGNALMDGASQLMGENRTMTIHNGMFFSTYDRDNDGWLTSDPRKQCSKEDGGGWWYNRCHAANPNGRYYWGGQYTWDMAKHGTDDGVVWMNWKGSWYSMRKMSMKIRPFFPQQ
fibrinogen, sequence (P02679 other isoform, or with tags, fused parts or gaps limits assumed, chain 3 of 3, further chain): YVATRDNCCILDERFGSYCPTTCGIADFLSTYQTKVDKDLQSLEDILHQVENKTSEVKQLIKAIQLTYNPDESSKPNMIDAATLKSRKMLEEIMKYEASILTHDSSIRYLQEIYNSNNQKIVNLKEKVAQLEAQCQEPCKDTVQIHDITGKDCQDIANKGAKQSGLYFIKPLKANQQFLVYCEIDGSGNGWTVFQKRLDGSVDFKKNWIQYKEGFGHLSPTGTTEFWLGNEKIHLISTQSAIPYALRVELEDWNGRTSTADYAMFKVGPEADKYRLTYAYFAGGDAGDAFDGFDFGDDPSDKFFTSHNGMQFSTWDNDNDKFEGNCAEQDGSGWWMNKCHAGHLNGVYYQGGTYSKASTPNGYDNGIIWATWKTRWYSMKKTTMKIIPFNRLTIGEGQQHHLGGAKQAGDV
CD54 (ICAM-1), sequence (P05362 28-480 limits assumed): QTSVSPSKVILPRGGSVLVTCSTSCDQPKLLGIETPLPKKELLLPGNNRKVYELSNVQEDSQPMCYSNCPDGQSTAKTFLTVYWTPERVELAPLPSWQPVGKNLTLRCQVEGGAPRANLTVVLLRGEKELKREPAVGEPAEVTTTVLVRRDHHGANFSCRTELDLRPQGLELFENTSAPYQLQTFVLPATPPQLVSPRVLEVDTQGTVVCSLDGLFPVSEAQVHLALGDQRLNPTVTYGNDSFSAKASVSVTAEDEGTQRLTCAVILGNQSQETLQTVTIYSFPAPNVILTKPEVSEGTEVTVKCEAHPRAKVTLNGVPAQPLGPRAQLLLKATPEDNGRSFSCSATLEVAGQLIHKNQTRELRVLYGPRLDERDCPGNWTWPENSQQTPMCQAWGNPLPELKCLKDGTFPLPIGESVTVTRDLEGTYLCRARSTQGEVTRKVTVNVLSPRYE

Row | Kd (CD54 (ICAM-1)) [nM] | Kd (fibrinogen) [nM] | Kd (complement iC3b [1]) [nM] | Kd (complement iC3b [2]) [nM] | Substance
1 | 220 | 250 | 460 | – | variant CD11b A domain consisting of amino acids E123 to K315 (11bA^123-315) (from UniProt P11215 139-331) (receptor)
2 | – | – | – | 660 | variant CD11b A domain with an Ile to Gly change at residue 316 (11bA^I→G) (from UniProt P11215 139-337) (receptor)
